This assay concerns the target MagD, the Type II alpha-2-macroglobulin from Pseudomonas aeruginosa (Pseudomonas aeruginosa) (UniProt Q9HVT2). In words: AUC; sedimentation velocity, 35,000 rpm, 20 °C, absorbance at 280 nm; 0.25, 0.5 and 1 mg/mL; 25 mM HEPES pH 7.5, 100 mM NaCl; c(s) analysis with Sedfit; co-purified complexes after analytical gel filtration. (SEC sorts molecules by how far they enter the pores of the column.)
MagB (natural protein) returned a stoichiometry N of 1.
Then MagA (natural protein), with 1; and MagF (natural protein), with 1.

One may read the stoichiometry N as the number of molecules, sites or subunits per partner or assembly.

Source of the values: paper PMC5764988.
